The source of these data is article PMC8691596.

Where two headings read alike, the source gives them in different places.

Experiment [1] deals with human FcγRI (CD64), histidine-tagged recombinant (human) (UniProt P12314). Briefly: SPR; His-tagged Fc receptor captured by anti-histidine antibody immobilised on CM5; antibody injected at 100 μg/mL for 1 min; response about 5 s before end of injection, blank subtracted; 25°C, HBS-EP+; Biacore T200. (In SPR one partner is held on a chip, and binding of the other changes the refractive index at the surface.)
Sequence of human FcγRI (CD64), histidine-tagged recombinant (human) (P12314 16-292): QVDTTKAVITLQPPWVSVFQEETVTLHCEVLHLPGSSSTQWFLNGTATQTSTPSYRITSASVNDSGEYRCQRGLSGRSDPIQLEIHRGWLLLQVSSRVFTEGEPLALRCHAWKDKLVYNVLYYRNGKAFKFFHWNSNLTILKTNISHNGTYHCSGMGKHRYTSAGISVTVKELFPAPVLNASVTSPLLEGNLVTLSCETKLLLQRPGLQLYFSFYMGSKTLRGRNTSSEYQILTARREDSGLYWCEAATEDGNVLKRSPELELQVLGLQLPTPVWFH

The target of experiment [2] is human FcγRIIb (CD32b), histidine-tagged recombinant (human) (UniProt P31994). Described as above.
Sequence of human FcγRIIb (CD32b), histidine-tagged recombinant (human) (P31994 43-217): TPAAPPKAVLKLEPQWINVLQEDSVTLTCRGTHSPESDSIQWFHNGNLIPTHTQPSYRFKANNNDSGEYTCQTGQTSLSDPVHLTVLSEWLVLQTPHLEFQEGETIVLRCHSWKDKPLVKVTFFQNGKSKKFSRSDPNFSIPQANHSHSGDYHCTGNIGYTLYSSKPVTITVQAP
Experiment [3] addresses human FcγRIIIb (CD16b) NA2 allele, histidine-tagged recombinant (human) (UniProt O75015). Described as above.
Experiment [4] addresses human FcγRIIIa (CD16a) F158 allele, histidine-tagged recombinant (human) (UniProt P08637). Described as above.
The target of experiment [5] is mouse FcγRI (CD64), histidine-tagged recombinant (mouse) (UniProt P26151). Described as above.
Sequence of mouse FcγRI (CD64), histidine-tagged recombinant (mouse) (P26151 25-297): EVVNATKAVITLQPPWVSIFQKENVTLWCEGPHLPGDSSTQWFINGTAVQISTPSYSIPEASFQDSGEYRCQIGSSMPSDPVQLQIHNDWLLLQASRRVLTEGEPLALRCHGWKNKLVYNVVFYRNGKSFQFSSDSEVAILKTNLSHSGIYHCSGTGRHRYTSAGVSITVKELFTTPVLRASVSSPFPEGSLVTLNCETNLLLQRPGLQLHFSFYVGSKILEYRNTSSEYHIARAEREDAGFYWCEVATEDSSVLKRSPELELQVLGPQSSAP
The target in experiment [6] is human FcγRIIa (CD32a) R131 allele, histidine-tagged recombinant (human) (UniProt P12318). Described as above.
Sequence of human FcγRIIa (CD32a) R131 allele, histidine-tagged recombinant (human) (P12318 34-217): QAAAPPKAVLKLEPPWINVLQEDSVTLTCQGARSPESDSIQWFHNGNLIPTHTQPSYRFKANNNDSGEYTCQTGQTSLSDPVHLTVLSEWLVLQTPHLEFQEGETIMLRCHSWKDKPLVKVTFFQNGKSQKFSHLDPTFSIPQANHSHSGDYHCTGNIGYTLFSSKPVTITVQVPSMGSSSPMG
In experiment [7] the target is human FcγRIIIa (CD16a) V158 allele, histidine-tagged recombinant (human) (UniProt P08637). The description is as above.
Sequence of human FcγRIIIa (CD16a) V158 allele, histidine-tagged recombinant (human) (P08637 17-208): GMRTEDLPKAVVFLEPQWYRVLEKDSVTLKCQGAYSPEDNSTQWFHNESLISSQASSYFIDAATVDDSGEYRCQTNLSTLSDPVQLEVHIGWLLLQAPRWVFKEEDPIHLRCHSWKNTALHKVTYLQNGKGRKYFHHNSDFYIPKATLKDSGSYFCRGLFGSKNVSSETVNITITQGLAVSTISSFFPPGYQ
Experiment [8] concerns the target rat FcγRI (CD64), histidine-tagged recombinant (rat). The experiment is described as above.
Experiment [9] deals with human FcγRIIb (CD32b), histidine-tagged recombinant (human) (UniProt P31994).
Experiment [10] deals with human FcγRIIIa (CD16a) V158 allele, histidine-tagged recombinant (human) (UniProt P08637).
The target in experiment [11] is human FcRn, histidine-tagged recombinant (human) (UniProt P55899). Briefly: SPR; human FcRn immobilised directly on CM5 (EDC/NHS); antibody injected at 20 μg/mL (dose response in Fig 4); HBS-EP+ pH 6.0, 25°C; response normalised to wild type.
Sequence of human FcRn, histidine-tagged recombinant (human) (P55899 24-297, chain 1 of 2): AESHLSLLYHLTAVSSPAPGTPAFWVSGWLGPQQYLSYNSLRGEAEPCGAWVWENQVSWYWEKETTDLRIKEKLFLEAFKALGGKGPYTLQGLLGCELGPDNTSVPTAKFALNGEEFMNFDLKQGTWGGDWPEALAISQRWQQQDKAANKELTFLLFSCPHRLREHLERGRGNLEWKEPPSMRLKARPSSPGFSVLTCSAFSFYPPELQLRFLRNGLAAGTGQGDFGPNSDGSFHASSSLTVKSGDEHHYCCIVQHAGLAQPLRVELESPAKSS
Sequence of human FcRn, histidine-tagged recombinant (human) (P61769 21-119, chain 2 of 2, further chain): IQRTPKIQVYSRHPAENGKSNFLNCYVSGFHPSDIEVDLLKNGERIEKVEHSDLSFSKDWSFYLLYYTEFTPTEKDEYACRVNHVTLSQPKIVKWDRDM
The target of experiment [12] is human FcγRI (CD64), histidine-tagged recombinant (human) (UniProt P12314). Put plainly: SPR; His-tagged Fc receptor captured by anti-histidine antibody immobilised on CM5; antibody injected at 100 μg/mL for 1 min; response about 5 s before end of injection, blank subtracted; 25°C, HBS-EP+; Biacore T200. The source holds these as a separate data set.
For experiment [13] the target is unchanged.

Sequence of human FcγRIIIa (CD16a) F158 allele, histidine-tagged recombinant (human) (P08637 17-208): as the sequence (P08637 17-208) above
Sequence of human FcγRIIIb (CD16b) NA2 allele, histidine-tagged recombinant (human) (O75015 17-200): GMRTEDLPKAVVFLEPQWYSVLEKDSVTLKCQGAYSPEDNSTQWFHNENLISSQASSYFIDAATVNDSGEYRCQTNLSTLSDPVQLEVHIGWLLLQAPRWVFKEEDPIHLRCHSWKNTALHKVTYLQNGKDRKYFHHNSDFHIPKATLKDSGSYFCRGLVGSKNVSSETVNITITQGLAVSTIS

As for “anti-CD20 IgG1 L234S/L235T/G236R (antibody)”, the mean response in experiment [1] was -1.3 RU; in experiment [2] it was 0.5 RU; in [3], -3 RU; in [4], 1.9 RU; in experiment [5], -5.4 RU; in [6], 2.6 RU. Further, the mean response in [7] was -6.3 RU; in [8], -2.4 RU.

As for “anti-CD20 IgG1 L234A/L235A/P329G (LALAPG) (antibody)”, the Mean normalised luminescence (% of wild-type reference); Promega Fc effector bioassay, Jurkat NFAT-luciferase cells with the receptor + Raji cells, antibody 10 μg/mL in experiment [9] is 1.7%; in experiment [10], 2.1%. The mean response in experiment [5] is 2.4 RU; in experiment [8], 0.7 RU.

On to “anti-CD3 IgG1 L234T/L235Q/G236R (antibody)”, for which the mean response in experiment [1] is -3.2 RU; in experiment [2], -2.8 RU; in experiment [3], -3 RU; in experiment [4], -0.9 RU; in [5] it was -5.8 RU; in experiment [6] it was -0.2 RU. For the same substance, the mean response in [7] was -10.7 RU; in [8], -2.4 RU.

With “anti-CD52 IgG1 L234A/L235A/P329G (LALAPG) (antibody)”, the mean normalised binding response (% of wild-type reference) in experiment [11] came out at 105%. The values for the mean response in experiment [1], in experiment [5] and in experiment [8] were 33.7 RU, -2.1 RU and -0.8 RU, respectively.

Turning to “anti-CD52 IgG1 L234A/L235A (LALA) (antibody)”, the mean normalised binding response (% of wild-type reference) in [11] came out at 105%. The mean response is 452 RU in experiment [1], 1.8 RU in [5] and -0.7 RU in [8].

For “anti-CD3 IgG1 L234G/L235S/G236R (antibody)”, the mean response in [1] was -5.2 RU; in experiment [2] it was -5.1 RU; in [3], -6.4 RU; in experiment [4], -4.7 RU; in experiment [5], -5.9 RU; in [6], -4.8 RU. Besides, the mean response in [7] is -14.4 RU; in experiment [8] it was -4.2 RU.

For “anti-CD52 IgG1 L234S/L235T/G236R (antibody)”, the mean normalised binding response (% of wild-type reference) in experiment [11] worked out at 116%. Also, the mean response is -5.1 RU in experiment [1]; -4.4 RU in experiment [2]; -4.3 RU in [3]; -3.3 RU in experiment [4]; -4.6 RU in experiment [5]; -3.1 RU in experiment [6]. In addition, the mean response was -5.6 RU in experiment [7] and -2.9 RU in experiment [8].

Regarding “anti-CD3 IgG1 L234A/L235A/P329G (LALAPG) (antibody)”, the values for the mean response in experiment [5] and in experiment [8] were -6.2 RU and -5.2 RU, respectively.

For “anti-CD52 IgG1 N297Q (aglycosyl) (antibody)”, the mean normalised binding response (% of wild-type reference) in [11] turned out to be 103%. The figures for the mean response in [1] and in experiment [5] were 431 RU and 50.4 RU, respectively.

Turning to “anti-CD20 IgG1 L234G/L235S/G236R (antibody)”, the Mean normalised luminescence (% of wild-type reference); Promega Fc effector bioassay, Jurkat NFAT-luciferase cells with the receptor + Raji cells, antibody 10 μg/mL was found to be 1.7% in [9] and 2.5% in experiment [10]. Moreover, the mean response in experiment [1] was -1.5 RU; in experiment [2], -0.1 RU; in experiment [3] it was -1.6 RU; in experiment [4] it was 1 RU; in experiment [5], -2.1 RU; in [6] it was 2.1 RU. For the same substance, the mean response is 1 RU in [7], -3.9 RU in [8] and 1.9 RU in experiment [12].

“anti-CD3 IgG1 L234T/L235T/G236R (antibody)”: the mean response in [1] was -3.1 RU; in experiment [2], -3.3 RU; in experiment [3] it was -4.4 RU; in [4], -2 RU; in [5] it was -5.5 RU; in experiment [6] it was -2.8 RU. The mean response in [7] is -8.6 RU; in [8], -3.5 RU.

As for “anti-CD20 IgG1 L234A/L235A (LALA) (antibody)”, in experiment [9], the Mean normalised luminescence (% of wild-type reference); Promega Fc effector bioassay, Jurkat NFAT-luciferase cells with the receptor + Raji cells, antibody 10 μg/mL came out at 40.6%. For the same substance, the mean response was -12.2 RU in [5] and -5.3 RU in experiment [8].

“anti-CD52 IgG1 L234S/L235V/G236R (antibody)”: the mean normalised binding response (% of wild-type reference) in experiment [11] is 119%. The mean response in experiment [1] is -20.3 RU; in experiment [2] it was 2.4 RU; in experiment [3], 2.6 RU; in experiment [4] it was 2.2 RU; in [5], -2.5 RU; in experiment [6], -4.2 RU. The values for the mean response in [7] and in [8] were -1.3 RU and -2.1 RU, respectively.

As to “anti-CD20 IgG1 N297Q (aglycosyl) (antibody)”, the Mean normalised luminescence (% of wild-type reference); Promega Fc effector bioassay, Jurkat NFAT-luciferase cells with the receptor + Raji cells, antibody 10 μg/mL in experiment [9] stood at 1.6%.

In the case of “anti-CD52 IgG1 L234T/L235Q/G236R (antibody)”, the mean normalised binding response (% of wild-type reference) in experiment [11] came to 115%. The mean response in experiment [1] was -10.6 RU; in [2], 1.3 RU; in experiment [3], 0.4 RU; in experiment [4], 0.7 RU; in experiment [5] it was -1.4 RU; in experiment [6], -2.2 RU. For the same substance, the mean response is -3.1 RU in [7] and 0.5 RU in experiment [8].

For “anti-CD52 IgG1 L234T/L235T/G236R (antibody)”, the mean normalised binding response (% of wild-type reference) in experiment [11] turned out to be 118%. Moreover, the mean response in experiment [1] is -20.7 RU; in experiment [2] it was -0.1 RU; in experiment [3], 0.8 RU; in experiment [4] it was -1.9 RU; in experiment [5], -3.9 RU; in [6], -8.7 RU. Further, the mean response in experiment [7] is -2 RU; in [8] it was -3.4 RU.

With “anti-CD52 IgG1 L234G/L235S/G236R (antibody)”, the mean normalised binding response (% of wild-type reference) in [11] was determined as 118%. Moreover, the mean response is -3.5 RU in experiment [1]; -5.5 RU in [2]; -4.8 RU in experiment [3]; -4.2 RU in [4]; -2.3 RU in experiment [5]; -3.5 RU in experiment [6]. Also, the mean response was -2.4 RU in experiment [7] and -1.7 RU in experiment [8].

“anti-CD3 IgG1 L234S/L235T/G236R (antibody)”: the mean response is -5.2 RU in experiment [1]; 3.9 RU in experiment [2]; 4.7 RU in experiment [3]; 3.3 RU in [4]; -7.5 RU in experiment [5]; 1.4 RU in experiment [6]. For the same substance, the results for the mean response in experiment [7] and in experiment [8] were -11.3 RU and -5.1 RU, respectively.

“anti-CD3 IgG1 L234S/L235V/G236R (antibody)”: the mean response in experiment [1] is -5.4 RU; in experiment [2] it was -4.2 RU; in [3] it was -4.8 RU; in [4], -3.4 RU; in experiment [5], -8.1 RU; in [6], -3.4 RU. Further, the mean response in experiment [7] was -12.7 RU; in [8] it was -4.8 RU.

Consider “anti-CD3 IgG1 L234A/L235A (LALA) (antibody)”, for which the mean response in [5] was -3.3 RU; in experiment [8] it was -4.9 RU.

“anti-CD20 IgG1 L234T/L235T/G236R (antibody)”: the Mean normalised luminescence (% of wild-type reference); Promega Fc effector bioassay, Jurkat NFAT-luciferase cells with the receptor + Raji cells, antibody 10 μg/mL in experiment [13] and in [9] was 1.9% each time. For the same substance, the mean response was -2.7 RU in experiment [1]; 0.6 RU in experiment [2]; -0.1 RU in experiment [3]; 1.6 RU in experiment [4]; 1.9 RU in experiment [6]; -0.2 RU in experiment [7]. Also, in experiment [8], the mean response was -0.8 RU.
